According to patent US20230416365A1 (Hoffmann-La Roche, published 2023):
Substitutions are numbered along the chain they refer to. Values belong to the binder of their own block, whether it stands above or below them.

Assays:
[1] = target: human FAP on 3T3-huFAP cells (clone 19) (human, UniProt Q12884 1-760); test: flow cytometry on 3T3-huFAP cells, PE anti-human secondary antibody, median fluorescence intensity
[2] = target: T1, human CD28 on CHO cells (parental cell line CHO-k1 ATCC #CCL-61, modified to stably overexpress human CD28) (human, UniProt P10747 19-220); test: flow cytometry on CHO-k1 cells expressing human CD28, PE anti-human secondary antibody, MFI
T1 construct: also called hu CD28; CHO-hCD28

[3] = target: T2, human CEA (CEACAM5), form in the assay not stated (human, UniProt P06731 35-685, limits assumed); test: SPR
T2 sequence: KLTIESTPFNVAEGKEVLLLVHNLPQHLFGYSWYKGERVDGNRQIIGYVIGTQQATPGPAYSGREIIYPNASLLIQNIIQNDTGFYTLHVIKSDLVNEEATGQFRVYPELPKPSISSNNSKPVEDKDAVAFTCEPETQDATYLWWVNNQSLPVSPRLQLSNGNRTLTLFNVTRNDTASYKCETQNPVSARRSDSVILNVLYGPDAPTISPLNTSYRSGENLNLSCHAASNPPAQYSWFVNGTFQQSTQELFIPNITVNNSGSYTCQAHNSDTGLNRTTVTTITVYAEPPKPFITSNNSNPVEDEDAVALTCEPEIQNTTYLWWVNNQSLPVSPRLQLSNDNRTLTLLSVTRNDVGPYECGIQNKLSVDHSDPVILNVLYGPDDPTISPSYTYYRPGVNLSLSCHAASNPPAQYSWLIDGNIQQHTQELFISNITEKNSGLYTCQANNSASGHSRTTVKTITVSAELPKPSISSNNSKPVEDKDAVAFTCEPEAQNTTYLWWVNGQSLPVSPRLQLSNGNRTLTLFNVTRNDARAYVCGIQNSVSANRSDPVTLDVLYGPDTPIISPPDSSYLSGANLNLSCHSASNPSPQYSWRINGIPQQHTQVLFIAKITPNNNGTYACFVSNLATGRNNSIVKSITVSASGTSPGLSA

binding result [1]: binds
B1: FAP-CD28CA 1+2 (P1AD8962) (bispecific antibody)
CD28(mAb 9.3) light chain: DIELTQSPASLAVSLGQRATISCRASESVEYYVTSLMQWYQQKPGQPPKLLIFAASNVESGVPARFSGSGSGTNFSLNIHPVDEDDVAMYFCQQSRKVPYTFGGGTKLEIKRTVAAPSVFIFPPSDEQLKSGTASVVCLLNNFYPREAKVQWKVDNALQSGNSQESVTEQDSKDSTYSLSSTLTLSKADYEKHKVYACEVTHQGLSSPVTKSFNRGEC
heavy chain CD28(mAb 9.3) VHCH - Fc knob - FAP(4B9) VH: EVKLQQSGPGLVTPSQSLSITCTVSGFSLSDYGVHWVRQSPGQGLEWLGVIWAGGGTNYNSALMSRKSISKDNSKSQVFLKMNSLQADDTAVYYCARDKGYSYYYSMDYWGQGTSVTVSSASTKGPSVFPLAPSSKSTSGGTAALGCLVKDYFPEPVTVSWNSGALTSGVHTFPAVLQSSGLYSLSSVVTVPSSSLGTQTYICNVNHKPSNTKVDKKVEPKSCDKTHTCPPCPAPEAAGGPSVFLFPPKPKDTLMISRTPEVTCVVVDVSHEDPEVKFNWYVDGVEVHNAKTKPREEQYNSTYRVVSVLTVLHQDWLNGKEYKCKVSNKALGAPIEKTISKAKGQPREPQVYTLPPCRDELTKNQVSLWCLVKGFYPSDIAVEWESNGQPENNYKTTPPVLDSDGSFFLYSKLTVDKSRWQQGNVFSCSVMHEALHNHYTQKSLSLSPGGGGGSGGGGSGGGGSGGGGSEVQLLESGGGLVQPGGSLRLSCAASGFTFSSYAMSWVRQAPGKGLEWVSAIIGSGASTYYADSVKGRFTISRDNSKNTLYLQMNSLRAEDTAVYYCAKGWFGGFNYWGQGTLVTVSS
heavy chain CD28(mAb 9.3) VHCH - Fc hole - FAP(4B9) VL: EVKLQQSGPGLVTPSQSLSITCTVSGFSLSDYGVHWVRQSPGQGLEWLGVIWAGGGTNYNSALMSRKSISKDNSKSQVFLKMNSLQADDTAVYYCARDKGYSYYYSMDYWGQGTSVTVSSASTKGPSVFPLAPSSKSTSGGTAALGCLVKDYFPEPVTVSWNSGALTSGVHTFPAVLQSSGLYSLSSVVTVPSSSLGTQTYICNVNHKPSNTKVDKKVEPKSCDKTHTCPPCPAPEAAGGPSVFLFPPKPKDTLMISRTPEVTCVVVDVSHEDPEVKFNWYVDGVEVHNAKTKPREEQYNSTYRVVSVLTVLHQDWLNGKEYKCKVSNKALGAPIEKTISKAKGQPREPQVCTLPPSRDELTKNQVSLSCAVKGFYPSDIAVEWESNGQPENNYKTTPPVLDSDGSFFLVSKLTVDKSRWQQGNVFSCSVMHEALHNHYTQKSLSLSPGGGGGSGGGGSGGGGSGGGGSEIVLTQSPGTLSLSPGERATLSCRASQSVTSSYLAWYQQKPGQAPRLLINVGSRRATGIPDRFSGSGSGTDFTLTISRLEPEDFAVYYCQQGIMLPPTFGQGTKVEIK
notes: also called Molecule Q; FAP(4B9)-CD28(mAb9.3) 1+2

Kd [3]: ~0.8 nM
B4: murine CEA antibody A5B7 (parental) (antibody, V domains shown)
VH: EVKLVESGGGLVQPGGSLRLSCATSGFTFTDYYMNWVRQPPGKALEWLGFIGNKANGYTTEYSASVKGRFTISRDKSQSILYLQMNTLRAEDSATYYCTRDRGLRFYFDYWGQGTTLTVSS
VL: QTVLSQSPAILSASPGEKVTMTCRASSSVTYIHWYQQKPGSSPKSWIYATSNLASGVPARFSGSGSGTSYSLTISRVEAEDAATYYCQHWSSKPPTFGGGTKLEIK
notes: also called parental murine A5B7 antibody; parental chimeric antibody

The remaining lines, values behind:

B2: FAP-CD28CA 2+2 (P1AD8968) (bispecific antibody)
heavy chain CD28(mAb 9.3) VHCH EE - Fc PGLALA - FAP(4B9) VHCL: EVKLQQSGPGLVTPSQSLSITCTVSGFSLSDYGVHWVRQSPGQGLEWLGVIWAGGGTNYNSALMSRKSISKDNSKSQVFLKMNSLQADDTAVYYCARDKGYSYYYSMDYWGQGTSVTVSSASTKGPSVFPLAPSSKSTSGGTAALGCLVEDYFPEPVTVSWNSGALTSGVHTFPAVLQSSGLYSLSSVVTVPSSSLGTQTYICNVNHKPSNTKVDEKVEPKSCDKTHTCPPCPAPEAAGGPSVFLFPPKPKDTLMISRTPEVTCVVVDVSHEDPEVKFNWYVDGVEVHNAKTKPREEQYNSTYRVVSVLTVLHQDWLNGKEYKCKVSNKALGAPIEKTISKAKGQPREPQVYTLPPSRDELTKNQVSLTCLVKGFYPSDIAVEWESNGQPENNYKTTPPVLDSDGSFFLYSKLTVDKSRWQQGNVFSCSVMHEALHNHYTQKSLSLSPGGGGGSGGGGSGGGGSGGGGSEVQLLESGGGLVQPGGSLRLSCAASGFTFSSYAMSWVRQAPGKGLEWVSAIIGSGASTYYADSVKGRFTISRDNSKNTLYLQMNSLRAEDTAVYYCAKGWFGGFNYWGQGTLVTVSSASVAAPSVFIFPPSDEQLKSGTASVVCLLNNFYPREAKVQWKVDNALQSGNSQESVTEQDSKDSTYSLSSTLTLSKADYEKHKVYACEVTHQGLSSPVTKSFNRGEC
CD28(mAb 9.3) light chain VLCL RK: B1 CD28(mAb 9.3) light chain with E127R, Q128K
FAP(4B9) VLCH1: EIVLTQSPGTLSLSPGERATLSCRASQSVTSSYLAWYQQKPGQAPRLLINVGSRRATGIPDRFSGSGSGTDFTLTISRLEPEDFAVYYCQQGIMLPPTFGQGTKVEIKSSASTKGPSVFPLAPSSKSTSGGTAALGCLVKDYFPEPVTVSWNSGALTSGVHTFPAVLQSSGLYSLSSVVTVPSSSLGTQTYICNVNHKPSNTKVDKKVEPKSC
notes: also called Molecule R; FAP(4B9)-CD28(mAb9.3) 2+2
EC50 (read off the curve) [1]: ~1 nM

B3: EpCAM (MT201)-CD28 (SA_Variant 15) 1+1 format (Molecule 14A) (bispecific antibody, human IgG1, kappa, L234A L235A)
heavy 1: not shown
light 1: QVQLVQSGAEVKKPGASVKVSCKASGYTFTSYYIHWVRQAPGQGLEWIGSIYPGNVQTNYNEKFKDRATLTVDTSISTAYMELSRLRSDDTAVYFCTRSHYGLDWNFDVWGQGTTVTVSSASVAAPSVFIFPPSDEQLKSGTASVVCLLNNFYPREAKVQWKVDNALQSGNSQESVTEQDSKDSTYSLSSTLTLSKADYEKHKVYACEVTHQGLSSPVTKSFNRGEC
heavy 2: not shown
light 2: ELQMTQSPSSLSASVGDRVTITCRTSQSISSYLNWYQQKPGQPPKLLIYWASTRESGVPDRFSGSGSGTDFTLTISSLQPEDSATYYCQQSYDIPYTFGQGTKLEIKRTVAAPSVFIFPPSDRKLKSGTASVVCLLNNFYPREAKVQWKVDNALQSGNSQESVTEQDSKDSTYSLSSTLTLSKADYEKHKVYACEVTHQGLSSPVTKSFNRGEC
notes: huIgG1 PG-LALA CrossFab; also called P1AE9051; EpCAM-CD28
EC50 (read off the curve) [2]: ~8 nM
